Patent US20040038236A1

Columns and labels:
[1] = biological target: GABAA receptor beta-2 subunit (GABRB2) (human) (UniProt P47870); experiment: cell-based or functional assay
[2] = biological target: GABAA receptor alpha-1 subunit (GABRA1) (human) (UniProt P14867); experiment: cell-based or functional assay
Sequence of GABAA receptor alpha-1 subunit (GABRA1) (human) (P14867 28-456): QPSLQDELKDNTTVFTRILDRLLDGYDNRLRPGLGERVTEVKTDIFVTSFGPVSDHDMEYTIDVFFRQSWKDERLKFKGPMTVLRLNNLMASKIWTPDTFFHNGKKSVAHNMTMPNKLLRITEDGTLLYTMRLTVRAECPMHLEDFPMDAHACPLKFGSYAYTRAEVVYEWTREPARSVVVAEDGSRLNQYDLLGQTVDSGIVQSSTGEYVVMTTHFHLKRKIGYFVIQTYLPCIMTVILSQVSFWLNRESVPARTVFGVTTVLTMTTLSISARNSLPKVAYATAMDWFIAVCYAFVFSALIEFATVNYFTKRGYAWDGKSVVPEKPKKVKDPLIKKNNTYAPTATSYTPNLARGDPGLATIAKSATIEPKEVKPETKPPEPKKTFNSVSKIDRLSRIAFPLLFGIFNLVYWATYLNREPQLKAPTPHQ

Sequence of GABAA receptor beta-2 subunit (GABRB2) (human) (P47870 26-512): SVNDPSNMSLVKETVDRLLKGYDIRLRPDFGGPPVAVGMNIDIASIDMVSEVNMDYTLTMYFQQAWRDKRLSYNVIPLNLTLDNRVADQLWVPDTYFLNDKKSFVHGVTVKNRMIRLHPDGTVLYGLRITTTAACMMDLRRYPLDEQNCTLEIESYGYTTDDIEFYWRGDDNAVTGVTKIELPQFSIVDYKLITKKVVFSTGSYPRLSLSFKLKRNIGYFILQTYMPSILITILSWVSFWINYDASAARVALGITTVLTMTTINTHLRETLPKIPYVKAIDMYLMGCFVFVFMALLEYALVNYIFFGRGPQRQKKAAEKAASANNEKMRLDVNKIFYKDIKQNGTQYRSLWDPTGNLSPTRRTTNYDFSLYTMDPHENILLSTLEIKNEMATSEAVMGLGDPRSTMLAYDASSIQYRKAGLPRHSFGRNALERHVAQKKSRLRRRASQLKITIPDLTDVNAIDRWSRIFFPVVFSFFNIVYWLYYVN

partial inhibition of the GABA current by Zn2+ (10 µM), Xenopus oocytes, two-electrode voltage clamp [1]	partial inhibition of the GABA current by Zn2+ (10 µM), Xenopus oocytes, two-electrode voltage clamp [2]	Substance
40%	40%	GABAA receptor gamma-2 subunit R43Q mutant, GABRG2(R43Q) (from UniProt P18507 40-475)
37%	37%	wild-type GABAA receptor gamma-2 subunit (GABRG2) (from UniProt P18507 40-475)
